In IntAct's records for PubMed 21236256:

B1: Actin filament-associated protein 1 (Gallus gallus (Chicken)), Q90738 (parent)
chain: MEELIVELRLFLELLDHEYLTSTVREKKAVITNILLRIQSSKGFEIKEHVQKPEVANSLPAPPQMPLPEIPQQWLPPDNGPPPLPTSSLPEGYYEEAVPVSPGKAPEYITSNYDSDAMSSSYESYDEEEEDGKGKKMRHQWPSEEASMDLVKDAKICAFLLRKKRFGQWTKLLCVIKENKLLCYKSSKDQQPQMELLLNDCSITYIPKDSKKKKHELKISHQGADALVLAVQSKEQAEQWLKVIKDVCSNCTGTVDSDGPLSSSPVHKTELEKKLSSERPSSDGEGAVENGITTVCNGKEQVKRKKSSKTEAKGTVTKVTGKKITKIIGLGKKKPSTDEQTSSAEEDVPTCGYLNVLSNNRWRERWCRVKDNKLIFHKDRTDLKTHIVSIPLRGCEVIPGLDSKHPLTFRLLRNGQEVAVLEASSSEDMGRWIGMLLAETGSSTDPGALHYDYIDVEMTASVIQAAKQTFCFMNRRVISTNPYRGSTANGYACPSGMALHYDDVPCINGSFKGKKPPATANGITGKVRTLNSQPKKPESVSCVKRTASNAEQYKYGKNRVEAVAKRLQSKEEELLKRKEALRNRLAQLRKERKDLRAAIEVNAGRKTQVILEDKLKKLEEECKTKEAERVNLELELTEVKESLKKALAGGITLGLAIEPKSGTSSPQSPIFKHRTLENSPISSCDTSDTECSIPVNSAAALKRPPSSNNSPCRGHVLRKAKEWEMKNGT

Variants of: B1
Conditions: with src_chick SRC

Variant	effect of a mutation on the interaction
P71A	decreasing interaction
